{"source": "patent US20250218531A1", "about": "(ABSCI, published 2025)", "note": "Values joined by “and” are separate entries in the source; they are usually repeats but may differ in a detail not shown here. Equal values may be shown once."}
{"molecular_target": "human epidermal growth factor receptor 2 (HER2) extracellular domain (human, UniProt P04626 23-629)", "test": "SPR"}
{"binder": "Trastuzumab HCDR3 variant AKFERGYYSFDFG (Fab, V domains shown) VH: EVQLVESGGGLVQPGGSLRLSCAASGFNIKDTYIHWVRQAPGKGLEWVARIYPTNGYTRYADSVKGRFTISADTSKNTAYLQMNSLRAEDTAVYYCAKFERGYYSFDFGWGQGTLVTVSS VL: not shown", "Kd": "38.3 nM", "log(KD (M))": "-7.42 log(M)"}
{"binder": "Trastuzumab HCDR3 variant AKFHWGEDWLSDN (Fab, V domains shown) VH: EVQLVESGGGLVQPGGSLRLSCAASGFNIKDTYIHWVRQAPGKGLEWVARIYPTNGYTRYADSVKGRFTISADTSKNTAYLQMNSLRAEDTAVYYCAKFHWGEDWLSDNWGQGTLVTVSS VL: not shown", "Kd": "59.1 nM", "log(KD (M))": "-7.23 log(M)"}
{"binder": "Trastuzumab HCDR3 variant AKYTRGFSYGFGY (Fab, V domains shown) VH: EVQLVESGGGLVQPGGSLRLSCAASGFNIKDTYIHWVRQAPGKGLEWVARIYPTNGYTRYADSVKGRFTISADTSKNTAYLQMNSLRAEDTAVYYCAKYTRGFSYGFGYWGQGTLVTVSS VL: not shown", "Kd": "37.8 nM", "log(KD (M))": "-7.42 log(M)"}
{"binder": "Trastuzumab HCDR3 variant ANVGSSLGIAALD (Fab, V domains shown) VH: EVQLVESGGGLVQPGGSLRLSCAASGFNIKDTYIHWVRQAPGKGLEWVARIYPTNGYTRYADSVKGRFTISADTSKNTAYLQMNSLRAEDTAVYYCANVGSSLGIAALDWGQGTLVTVSS VL: not shown", "Kd": "36.7 nM", "log(KD (M))": "-7.44 log(M)"}
{"binder": "Trastuzumab HCDR3 variant APWGTYRYGYFDH (Fab, V domains shown) VH: EVQLVESGGGLVQPGGSLRLSCAASGFNIKDTYIHWVRQAPGKGLEWVARIYPTNGYTRYADSVKGRFTISADTSKNTAYLQMNSLRAEDTAVYYCAPWGTYRYGYFDHWGQGTLVTVSS VL: not shown", "Kd": "67.6 nM", "log(KD (M))": "-7.17 log(M)"}
{"binder": "Trastuzumab HCDR3 variant APWWSGWYYFFDT (Fab, V domains shown) VH: EVQLVESGGGLVQPGGSLRLSCAASGFNIKDTYIHWVRQAPGKGLEWVARIYPTNGYTRYADSVKGRFTISADTSKNTAYLQMNSLRAEDTAVYYCAPWWSGWYYFFDTWGQGTLVTVSS VL: not shown", "Kd": "33 nM", "log(KD (M))": "-7.48 log(M)"}
{"binder": "Trastuzumab HCDR3 variant AQNWDRGSYFYTY (Fab, V domains shown) VH: EVQLVESGGGLVQPGGSLRLSCAASGFNIKDTYIHWVRQAPGKGLEWVARIYPTNGYTRYADSVKGRFTISADTSKNTAYLQMNSLRAEDTAVYYCAQNWDRGSYFYTYWGQGTLVTVSS VL: not shown", "Kd": "43.1 nM and 43 nM", "log(KD (M))": "-7.37 log(M)"}
{"binder": "Trastuzumab HCDR3 variant AQYGRGGYWYFDY (Fab, V domains shown) VH: EVQLVESGGGLVQPGGSLRLSCAASGFNIKDTYIHWVRQAPGKGLEWVARIYPTNGYTRYADSVKGRFTISADTSKNTAYLQMNSLRAEDTAVYYCAQYGRGGYWYFDYWGQGTLVTVSS VL: not shown", "Kd": "188 nM", "log(KD (M))": "-6.72 log(M)"}
{"binder": "Trastuzumab HCDR3 variant ARAGGTSISLGHG (Fab, V domains shown) VH: EVQLVESGGGLVQPGGSLRLSCAASGFNIKDTYIHWVRQAPGKGLEWVARIYPTNGYTRYADSVKGRFTISADTSKNTAYLQMNSLRAEDTAVYYCARAGGTSISLGHGWGQGTLVTVSS VL: not shown", "Kd": "67 nM", "log(KD (M))": "-7.17 log(M)"}
{"binder": "Trastuzumab HCDR3 variant ARDGGMYRYGLYG (Fab, V domains shown) VH: EVQLVESGGGLVQPGGSLRLSCAASGFNIKDTYIHWVRQAPGKGLEWVARIYPTNGYTRYADSVKGRFTISADTSKNTAYLQMNSLRAEDTAVYYCARDGGMYRYGLYGWGQGTLVTVSS VL: not shown", "Kd": "231 nM", "log(KD (M))": "-6.64 log(M)"}
{"binder": "Trastuzumab HCDR3 variant ARDGYPFYSGMDY (Fab, V domains shown) VH: EVQLVESGGGLVQPGGSLRLSCAASGFNIKDTYIHWVRQAPGKGLEWVARIYPTNGYTRYADSVKGRFTISADTSKNTAYLQMNSLRAEDTAVYYCARDGYPFYSGMDYWGQGTLVTVSS VL: not shown", "Kd": "154 nM", "log(KD (M))": "-6.81 log(M)"}
{"binder": "Trastuzumab HCDR3 variant ARDGYPQYGGYGY (Fab, V domains shown) VH: EVQLVESGGGLVQPGGSLRLSCAASGFNIKDTYIHWVRQAPGKGLEWVARIYPTNGYTRYADSVKGRFTISADTSKNTAYLQMNSLRAEDTAVYYCARDGYPQYGGYGYWGQGTLVTVSS VL: not shown", "Kd": "127 nM", "log(KD (M))": "-6.9 log(M)"}
{"binder": "Trastuzumab HCDR3 variant ARDSPYYGSLYLY (Fab, V domains shown) VH: EVQLVESGGGLVQPGGSLRLSCAASGFNIKDTYIHWVRQAPGKGLEWVARIYPTNGYTRYADSVKGRFTISADTSKNTAYLQMNSLRAEDTAVYYCARDSPYYGSLYLYWGQGTLVTVSS VL: not shown", "Kd": "205 nM", "log(KD (M))": "-6.69 log(M)"}
{"binder": "Trastuzumab HCDR3 variant ARDVYVGSPVFDY (Fab, V domains shown) VH: EVQLVESGGGLVQPGGSLRLSCAASGFNIKDTYIHWVRQAPGKGLEWVARIYPTNGYTRYADSVKGRFTISADTSKNTAYLQMNSLRAEDTAVYYCARDVYVGSPVFDYWGQGTLVTVSS VL: not shown", "Kd": "278 nM", "log(KD (M))": "-6.56 log(M)"}
{"binder": "Trastuzumab HCDR3 variant ARFGGAGGYYFDY (Fab, V domains shown) VH: EVQLVESGGGLVQPGGSLRLSCAASGFNIKDTYIHWVRQAPGKGLEWVARIYPTNGYTRYADSVKGRFTISADTSKNTAYLQMNSLRAEDTAVYYCARFGGAGGYYFDYWGQGTLVTVSS VL: not shown", "Kd": "35 nM", "log(KD (M))": "-7.46 log(M)"}
{"binder": "Trastuzumab HCDR3 variant ARFGPAYFYGFYY (Fab, V domains shown) VH: EVQLVESGGGLVQPGGSLRLSCAASGFNIKDTYIHWVRQAPGKGLEWVARIYPTNGYTRYADSVKGRFTISADTSKNTAYLQMNSLRAEDTAVYYCARFGPAYFYGFYYWGQGTLVTVSS VL: not shown", "Kd": "50.9 nM", "log(KD (M))": "-7.29 log(M)"}
{"binder": "Trastuzumab HCDR3 variant ARFSGYGAYDYAY (Fab, V domains shown) VH: EVQLVESGGGLVQPGGSLRLSCAASGFNIKDTYIHWVRQAPGKGLEWVARIYPTNGYTRYADSVKGRFTISADTSKNTAYLQMNSLRAEDTAVYYCARFSGYGAYDYAYWGQGTLVTVSS VL: not shown", "Kd": "125 nM", "log(KD (M))": "-6.9 log(M)"}
{"binder": "Trastuzumab HCDR3 variant ARGGYGYYTWFDY (Fab, V domains shown) VH: EVQLVESGGGLVQPGGSLRLSCAASGFNIKDTYIHWVRQAPGKGLEWVARIYPTNGYTRYADSVKGRFTISADTSKNTAYLQMNSLRAEDTAVYYCARGGYGYYTWFDYWGQGTLVTVSS VL: not shown", "Kd": "42.1 nM", "log(KD (M))": "-7.38 log(M)"}
{"binder": "Trastuzumab HCDR3 variant ARGHYSLGYSFDF (Fab, V domains shown) VH: EVQLVESGGGLVQPGGSLRLSCAASGFNIKDTYIHWVRQAPGKGLEWVARIYPTNGYTRYADSVKGRFTISADTSKNTAYLQMNSLRAEDTAVYYCARGHYSLGYSFDFWGQGTLVTVSS VL: not shown", "Kd": "256 nM", "log(KD (M))": "-6.59 log(M)"}
{"binder": "Trastuzumab HCDR3 variant ARGYYQDSQSWGY (Fab, V domains shown) VH: EVQLVESGGGLVQPGGSLRLSCAASGFNIKDTYIHWVRQAPGKGLEWVARIYPTNGYTRYADSVKGRFTISADTSKNTAYLQMNSLRAEDTAVYYCARGYYQDSQSWGYWGQGTLVTVSS VL: not shown", "Kd": "166 nM", "log(KD (M))": "-6.78 log(M)"}
{"binder": "Trastuzumab HCDR3 variant ARHYDYGRYYMDV (Fab, V domains shown) VH: EVQLVESGGGLVQPGGSLRLSCAASGFNIKDTYIHWVRQAPGKGLEWVARIYPTNGYTRYADSVKGRFTISADTSKNTAYLQMNSLRAEDTAVYYCARHYDYGRYYMDVWGQGTLVTVSS VL: not shown", "Kd": "30.9 nM", "log(KD (M))": "-7.51 log(M)"}
{"binder": "Trastuzumab HCDR3 variant ARNSGTGIWAFAY (Fab, V domains shown) VH: EVQLVESGGGLVQPGGSLRLSCAASGFNIKDTYIHWVRQAPGKGLEWVARIYPTNGYTRYADSVKGRFTISADTSKNTAYLQMNSLRAEDTAVYYCARNSGTGIWAFAYWGQGTLVTVSS VL: not shown", "Kd": "65 nM", "log(KD (M))": "-7.19 log(M)"}
{"binder": "Trastuzumab HCDR3 variant ARNYYYGAYYFDY (Fab, V domains shown) VH: EVQLVESGGGLVQPGGSLRLSCAASGFNIKDTYIHWVRQAPGKGLEWVARIYPTNGYTRYADSVKGRFTISADTSKNTAYLQMNSLRAEDTAVYYCARNYYYGAYYFDYWGQGTLVTVSS VL: not shown", "Kd": "45.5 nM", "log(KD (M))": "-7.34 log(M)"}
{"binder": "Trastuzumab HCDR3 variant ARPSYDVGGDMLF (Fab, V domains shown) VH: EVQLVESGGGLVQPGGSLRLSCAASGFNIKDTYIHWVRQAPGKGLEWVARIYPTNGYTRYADSVKGRFTISADTSKNTAYLQMNSLRAEDTAVYYCARPSYDVGGDMLFWGQGTLVTVSS VL: not shown", "Kd": "83.3 nM and 83.2 nM", "log(KD (M))": "-7.08 log(M)"}
{"binder": "Trastuzumab HCDR3 variant ARSGYPGYGSFAY (Fab, V domains shown) VH: EVQLVESGGGLVQPGGSLRLSCAASGFNIKDTYIHWVRQAPGKGLEWVARIYPTNGYTRYADSVKGRFTISADTSKNTAYLQMNSLRAEDTAVYYCARSGYPGYGSFAYWGQGTLVTVSS VL: not shown", "Kd": "60.7 nM", "log(KD (M))": "-7.22 log(M)"}
{"binder": "Trastuzumab HCDR3 variant ARSYAFLYGRMDY (Fab, V domains shown) VH: EVQLVESGGGLVQPGGSLRLSCAASGFNIKDTYIHWVRQAPGKGLEWVARIYPTNGYTRYADSVKGRFTISADTSKNTAYLQMNSLRAEDTAVYYCARSYAFLYGRMDYWGQGTLVTVSS VL: not shown", "Kd": "189 nM and 188 nM", "log(KD (M))": "-6.72 log(M)"}
{"binder": "Trastuzumab HCDR3 variant ARSYAYLYGSWDY (Fab, V domains shown) VH: EVQLVESGGGLVQPGGSLRLSCAASGFNIKDTYIHWVRQAPGKGLEWVARIYPTNGYTRYADSVKGRFTISADTSKNTAYLQMNSLRAEDTAVYYCARSYAYLYGSWDYWGQGTLVTVSS VL: not shown", "Kd": "102 nM", "log(KD (M))": "-6.99 log(M)"}
{"binder": "Trastuzumab HCDR3 variant ARSYFRFTGDFFY (Fab, V domains shown) VH: EVQLVESGGGLVQPGGSLRLSCAASGFNIKDTYIHWVRQAPGKGLEWVARIYPTNGYTRYADSVKGRFTISADTSKNTAYLQMNSLRAEDTAVYYCARSYFRFTGDFFYWGQGTLVTVSS VL: not shown", "Kd": "135 nM", "log(KD (M))": "-6.87 log(M)"}
{"binder": "Trastuzumab HCDR3 variant ARTTSSIPSSFDY (Fab, V domains shown) VH: EVQLVESGGGLVQPGGSLRLSCAASGFNIKDTYIHWVRQAPGKGLEWVARIYPTNGYTRYADSVKGRFTISADTSKNTAYLQMNSLRAEDTAVYYCARTTSSIPSSFDYWGQGTLVTVSS VL: not shown", "Kd": "149 nM", "log(KD (M))": "-6.83 log(M)"}
{"binder": "Trastuzumab HCDR3 variant ARTVVGWYGRFDY (Fab, V domains shown) VH: EVQLVESGGGLVQPGGSLRLSCAASGFNIKDTYIHWVRQAPGKGLEWVARIYPTNGYTRYADSVKGRFTISADTSKNTAYLQMNSLRAEDTAVYYCARTVVGWYGRFDYWGQGTLVTVSS VL: not shown", "Kd": "63.6 nM", "log(KD (M))": "-7.2 log(M)"}
{"binder": "Trastuzumab HCDR3 variant ARWARGAGYYWDY (Fab, V domains shown) VH: EVQLVESGGGLVQPGGSLRLSCAASGFNIKDTYIHWVRQAPGKGLEWVARIYPTNGYTRYADSVKGRFTISADTSKNTAYLQMNSLRAEDTAVYYCARWARGAGYYWDYWGQGTLVTVSS VL: not shown", "Kd": "89.6 nM", "log(KD (M))": "-7.05 log(M)"}
